T1: cynomolgus monkey (Macaca fascicularis) ROR2, full length, on CHO cells (cynomolgus monkey (Macaca fascicularis), UniProt Q01974 34-943 (human entry))
T1 construct: also called ROR2mf; CHO-mfROR2
T1 chain: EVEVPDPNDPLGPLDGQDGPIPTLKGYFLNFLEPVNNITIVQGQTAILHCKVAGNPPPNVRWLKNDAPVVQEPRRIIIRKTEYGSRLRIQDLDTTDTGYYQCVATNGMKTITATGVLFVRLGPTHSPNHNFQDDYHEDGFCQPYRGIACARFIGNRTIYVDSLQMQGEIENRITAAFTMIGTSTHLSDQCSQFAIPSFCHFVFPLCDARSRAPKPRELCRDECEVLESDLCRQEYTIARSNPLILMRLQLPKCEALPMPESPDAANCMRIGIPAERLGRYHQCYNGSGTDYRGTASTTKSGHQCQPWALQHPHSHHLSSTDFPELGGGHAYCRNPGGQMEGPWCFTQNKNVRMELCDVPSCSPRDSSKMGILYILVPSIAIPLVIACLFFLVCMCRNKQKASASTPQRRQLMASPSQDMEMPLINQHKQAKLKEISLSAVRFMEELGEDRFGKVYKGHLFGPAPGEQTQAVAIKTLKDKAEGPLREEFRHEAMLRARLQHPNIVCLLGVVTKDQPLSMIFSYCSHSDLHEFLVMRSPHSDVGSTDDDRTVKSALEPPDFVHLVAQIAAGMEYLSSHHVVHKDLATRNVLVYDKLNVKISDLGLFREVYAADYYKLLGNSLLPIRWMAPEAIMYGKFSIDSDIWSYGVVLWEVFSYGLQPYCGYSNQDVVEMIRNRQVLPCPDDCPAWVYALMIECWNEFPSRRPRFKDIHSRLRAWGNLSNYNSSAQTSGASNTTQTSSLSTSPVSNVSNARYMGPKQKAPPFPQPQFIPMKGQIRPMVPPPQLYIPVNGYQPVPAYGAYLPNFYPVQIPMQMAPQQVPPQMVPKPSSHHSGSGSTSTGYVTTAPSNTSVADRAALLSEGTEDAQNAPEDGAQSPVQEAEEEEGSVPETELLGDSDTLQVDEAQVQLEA

B1: bsIgG1-huCD3-FEAL×chROR2-A-FEAR (bispecific antibody)
heavy 1: not shown
light 1: not shown
heavy 2: QSVEESGGRLVTPGTPLTLTCTVSGFSLSSYSMSWVRQAPGKGLEWIGVIYVNSKTWYANWAKGRFTISKTSTTVDLKITSPTTEDTATYFCARGDAGYTTNSWLWGPGTLVTVSSASTKGPSVFPLAPSSKSTSGGTAALGCLVKDYFPEPVTVSWNSGALTSGVHTFPAVLQSSGLYSLSSVVTVPSSSLGTQTYICNVNHKPSNTKVDKRVEPKSCDKTHTCPPCPAPEFEGGPSVFLFPPKPKDTLMISRTPEVTCVVVAVSHEDPEVKFNWYVDGVEVHNAKTKPREEQYNSTYRVVSVLTVLHQDWLNGKEYKCKVSNKALPAPIEKTISKAKGQPREPQVYTLPPSREEMTKNQVSLTCLVKGFYPSDIAVEWESNGQPENNYKTTPPVLDSDGSFFLYSRLTVDKSRWQQGNVFSCSVMHEALHNHYTQKSLSLSPGK
light 2: AFELTQTPASVSEPVGGTVTIKCQASESIDNYCSWYQQKPGQPPKLLIYQAFKLASGVPSRFRGSGSGTQFTLTISDLESDDAATYYCQSYSGISTTAFGGGTEVVVKRTVAAPSVFIFPPSDEQLKSGTASVVCLLNNFYPREAKVQWKVDNALQSGNSQESVTEQDSKDSTYSLSSTLTLSKADYEKHKVYACEVTHQGLSSPVTKSFNRGEC
B2: bsIgG1-huCD3-H101G-FEAL×chROR2-A-FEAR (bispecific antibody)
heavy 1: not shown
light 1: not shown
heavy 2: B1 heavy 2
light 2: B1 light 2
B3: IgG1-ROR2-A-HC4LC3-FEAR (antibody)
heavy: EVQLLESGGGLVQPGGSLRLSCTVSGFSLSSYSMSWVRQAPGKGLEWIGVIYVNSKTWYANWAKGRFTISKDNSKNTVYLQMNSLRAEDTATYYCARGDAGYTTNSWLWGQGTLVTVSSASTKGPSVFPLAPSSKSTSGGTAALGCLVKDYFPEPVTVSWNSGALTSGVHTFPAVLQSSGLYSLSSVVTVPSSSLGTQTYICNVNHKPSNTKVDKRVEPKSCDKTHTCPPCPAPEFEGGPSVFLFPPKPKDTLMISRTPEVTCVVVAVSHEDPEVKFNWYVDGVEVHNAKTKPREEQYNSTYRVVSVLTVLHQDWLNGKEYKCKVSNKALPAPIEKTISKAKGQPREPQVYTLPPSREEMTKNQVSLTCLVKGFYPSDIAVEWESNGQPENNYKTTPPVLDSDGSFFLYSRLTVDKSRWQQGNVFSCSVMHEALHNHYTQKSLSLSPGK
light: AFELTQSPSSLSASVGDRVTITCQASESIDNYLSWYQQKPGKAPKLLIYQAFKLASGVPSRFRGSGSGTDFTLTISSLQPEDFATYYCQSYSGISTTAFGGGTKVEIKRTVAAPSVFIFPPSDEQLKSGTASVVCLLNNFYPREAKVQWKVDNALQSGNSQESVTEQDSKDSTYSLSSTLTLSKADYEKHKVYACEVTHQGLSSPVTKSFNRGEC
notes: Humanized variant, full-length IgG1 with L234F, L235E, D265A, K409R; also called IgG1-ROR2-HC4LC3
B4: bsIgG1-huCD3-FEAL×ROR2-A-HC4LC3-FEAR (bispecific antibody)
heavy 1: not shown
light 1: not shown
heavy 2: B3 heavy
light 2: B3 light
B5: bsIgG1-huCD3-H101G-FEAL×ROR2-A-HC4LC3-FEAR (bispecific antibody)
heavy 1: not shown
light 1: not shown
heavy 2: B3 heavy
light 2: B3 light
B6: chIgG1-ROR2-A-FEAR (antibody, V domains shown)
VH: QSVEESGGRLVTPGTPLTLTCTVSGFSLSSYSMSWVRQAPGKGLEWIGVIYVNSKTWYANWAKGRFTISKTSTTVDLKITSPTTEDTATYFCARGDAGYTTNSWLWGPGTLVTVSS
VL: AFELTQTPASVSEPVGGTVTIKCQASESIDNYCSWYQQKPGQPPKLLIYQAFKLASGVPSRFRGSGSGTQFTLTISDLESDDAATYYCQSYSGISTTAFGGGTEVVVKR
notes: Full-length IgG1 with L234F, L235E, D265A, K409R; also called chIgG1-ROR2-A (with the Fc mutations FEAR)
B7: IgG1-ROR2-A-HC2LC4-FEAR (antibody)
heavy: QSVLESGGGLVQPGGSLRLSCTVSGFSLSSYSMSWVRQAPGKGLEWIGVIYVNSKTWYANWAKGRFTISKTSTTVYLQMNSLRAEDTATYFCARGDAGYTTNSWLWGQGTLVTVSSASTKGPSVFPLAPSSKSTSGGTAALGCLVKDYFPEPVTVSWNSGALTSGVHTFPAVLQSSGLYSLSSVVTVPSSSLGTQTYICNVNHKPSNTKVDKRVEPKSCDKTHTCPPCPAPEFEGGPSVFLFPPKPKDTLMISRTPEVTCVVVAVSHEDPEVKFNWYVDGVEVHNAKTKPREEQYNSTYRVVSVLTVLHQDWLNGKEYKCKVSNKALPAPIEKTISKAKGQPREPQVYTLPPSREEMTKNQVSLTCLVKGFYPSDIAVEWESNGQPENNYKTTPPVLDSDGSFFLYSRLTVDKSRWQQGNVFSCSVMHEALHNHYTQKSLSLSPGK
VL: DIQLTQSPSSLSASVGDRVTITCQASESIDNYLSWYQQKPGKAPKLLIYQAFKLASGVPSRFRGSGSGTDFTLTISSLQPEDFATYYCQSYSGISTTAFGGGTKVEIK
notes: Humanized variant

Columns and labels:
[1] = molecular target: T2, human (Homo sapiens) ROR2, full length, on cells (human, UniProt Q01974 34-943); assay: cell-based or functional assay
[2] = molecular target: T3, cynomolgus monkey ROR2 in which threonine at position 322 is replaced by methionine (ROR2mf-T322M) (cynomolgus monkey (Macaca fascicularis), UniProt Q01974 34-943 (human entry)); assay: flow cytometry on CHO cells expressing ROR2mf-T322M
T3 construct: also called RORmf-T322M

[3] = molecular target: T1, cynomolgus monkey (Macaca fascicularis) …; assay: flow cytometry on CHO cells expressing cynomolgus monkey ROR2
Description: Next, binding of bispecific CD3×ROR2 antibodies and monospecific ROR2 antibodies to CHO cells expressing human or cynomolgus monkey ROR2 was determined, using 5×10⁴ transfected cells/well and an antibody concentration range from 0.01-10 μg/mL.

[4] = molecular target: T4, his-tagged ROR2 extracellular domain (ROR2-ECD, G&P Biosciences, cat. no. FCL0192) (human, UniProt Q01974 34-403); assay: BLI (Octet), antibody on anti-human IgG Fc sensor, ROR2-ECD 1.56-100 nM as analyte
T4 construct: Bought protein; also called human ROR2-ECD; recombinant human ROR2-ECD; not shown: his tag

[5] = molecular target: T2, human (Homo sapiens) ROR2, full length, …; assay: flow cytometry on CHO cells expressing human ROR2
Description: Cells (1×10⁵ cells/well) were incubated in polystyrene 96-well round-bottom plates (Greiner bio-one, cat. no. 650180) with serial dilutions of antibodies (ranging from 0.01 to 10 μg/mL in 3- or 4-fold dilution steps) in 100 μL PBS/0.1% BSA/0.02% azide (FACS buffer) at 4° C. for 30-60 min. Experiments were performed in technical duplicate. After washing twice in FACS buffer, cells were incubated in 50 μL secondary antibody (R-Phycoerythrin [PE]-conjugated goat-anti-human IgG F(ab′)₂; diluted 1:200 in FACS buffer; Jackson ImmunoResearch Laboratories, Inc., West Grove, PA, cat. no. 109-116-098) at 4° C. for 30 min. Cells were washed twice in FACS buffer, re-suspended in 30 μL FACS buffer containing Topro-3 (1:10,000 dilution) and analyzed on an iQue Screener (Intellicyt Corporation, USA). Binding curves were analyzed using non-linear regression (sigmoidal dose-response with variable slope) using GraphPad Prism V7.02 software (GraphPad Software, San Diego, CA, USA).

T4 sequence (Q01974 34-403): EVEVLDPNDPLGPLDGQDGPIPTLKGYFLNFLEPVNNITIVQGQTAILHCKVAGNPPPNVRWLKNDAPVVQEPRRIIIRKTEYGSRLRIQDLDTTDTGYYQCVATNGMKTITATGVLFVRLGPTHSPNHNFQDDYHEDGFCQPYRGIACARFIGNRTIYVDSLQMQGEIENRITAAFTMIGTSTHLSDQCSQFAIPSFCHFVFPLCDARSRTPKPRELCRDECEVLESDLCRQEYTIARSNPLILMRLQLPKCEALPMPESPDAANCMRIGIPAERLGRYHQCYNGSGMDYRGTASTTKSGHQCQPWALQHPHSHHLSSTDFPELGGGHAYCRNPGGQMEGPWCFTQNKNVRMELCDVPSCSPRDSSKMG
T2 sequence (Q01974 34-943 limits assumed): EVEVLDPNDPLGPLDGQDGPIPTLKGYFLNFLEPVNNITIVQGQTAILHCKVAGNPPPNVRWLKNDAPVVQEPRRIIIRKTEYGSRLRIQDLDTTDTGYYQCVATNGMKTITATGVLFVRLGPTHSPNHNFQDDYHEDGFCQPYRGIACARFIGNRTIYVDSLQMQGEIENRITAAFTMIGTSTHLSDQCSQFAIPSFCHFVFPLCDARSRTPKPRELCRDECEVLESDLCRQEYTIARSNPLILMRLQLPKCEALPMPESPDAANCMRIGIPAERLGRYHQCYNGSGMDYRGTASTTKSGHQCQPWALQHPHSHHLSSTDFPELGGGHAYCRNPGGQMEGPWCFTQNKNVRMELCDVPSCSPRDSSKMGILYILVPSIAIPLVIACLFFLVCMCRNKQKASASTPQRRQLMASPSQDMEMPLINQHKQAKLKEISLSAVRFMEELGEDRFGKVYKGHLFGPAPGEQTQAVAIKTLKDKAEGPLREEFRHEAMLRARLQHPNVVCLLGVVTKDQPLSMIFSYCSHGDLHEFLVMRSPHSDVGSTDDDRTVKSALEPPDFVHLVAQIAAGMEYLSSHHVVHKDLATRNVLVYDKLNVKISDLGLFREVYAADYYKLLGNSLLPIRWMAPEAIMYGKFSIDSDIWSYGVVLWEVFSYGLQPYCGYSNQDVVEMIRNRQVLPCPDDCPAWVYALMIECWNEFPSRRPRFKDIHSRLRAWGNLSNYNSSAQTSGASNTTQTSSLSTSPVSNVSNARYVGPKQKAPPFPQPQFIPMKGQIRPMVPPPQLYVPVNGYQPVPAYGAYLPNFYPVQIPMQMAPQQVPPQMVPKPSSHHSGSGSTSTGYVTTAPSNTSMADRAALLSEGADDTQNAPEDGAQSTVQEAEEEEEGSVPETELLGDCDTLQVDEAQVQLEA

Row | Binder | IC50 of T cell mediated cytotoxicity, 786-O cells, human T cells, E:T 8:1 [1] [µg/mL] | IC50 of T cell mediated cytotoxicity, Hela cells, human T cells, E:T 8:1 [1] [µg/mL] | IC50 of T cell mediated cytotoxicity, LCLC-103H cells, human T cells, E:T 8:1 [1] [µg/mL] | IC50 of T cell mediated cytotoxicity, NCI-H23 cells, human T cells, E:T 8:1 [1] [µg/mL] | IC50 of T cell mediated cytotoxicity, NCI-H1650 cells, human T cells, E:T 8:1 [1] [µg/mL] | IC50 of T cell mediated cytotoxicity, ZR-75-1 cells, human T cells, E:T 8:1 [1] [µg/mL] | binding result [2] | binding result [3] | Kd [4] [nM] | koff [4] [s⁻¹] | kon [4] [M⁻¹ s⁻¹] | binding result [5]
1 | B1 | 0.003 | 0.002 | 0.011 | 0.013 | 0.006 | 0.003 | binds | binds | – | – | – | –
2 | B2 | 0.088 | 0.424 | 0.511 | 0.58 | 0.693 | 0.424 | binds | – | – | – | – | –
3 | B3 | – | – | – | – | – | – | – | binds | 1.1 | 0.00068 | 600000 | –
4 | B4 | – | – | – | – | – | – | binds | binds | – | – | – | binds
5 | B5 | – | – | – | – | – | – | binds | – | – | – | – | binds
6 | B6 | – | – | – | – | – | – | binds | binds | 1.1 | 0.00079 | 720000 | –
7 | B7 | – | – | – | – | – | – | – | – | 2.2 | 0.0011 | 510000 | –

Reference: US20230365714A1 (published 2023)
